From patent US20150004637A1, “SYSTEMS AND METHODS FOR IMAGING AT HIGH SPATIAL AND/OR TEMPORAL PRECISION” (President and Fellows of Harvard College, priority 2011, published 2015)

B1: Archaerhodopsin 3 (protein)
chain: MDPIALQAGYDLLGDGRPETLWLGIGTLLMLIGTFYFLVRGWGVTDKDAREYYAVTILVPGIASAAYLSMFFGIGLTEVTVGGEMLDIYYARYADWLFTTPLLLLDLALLAKVDRVTIGTLVGVDALMIVTGLIGALSHTAIARYSWWLFSTICMIVVLYFLATSLRSAAKERGPEVASTFNTLTALVLVLWTAYPILWIIGTEGAGVVGLGIETLLFMVLDVTAKVGFGFILLRSRAILGDTEAPEPSAGADVSAAD
modifications: Halorubrum sodomense
notes: Microbial rhodopsin from Halorubrum sodomense, light-driven proton pump used as fluorescent voltage indicator; experiments used an Arch-eGFP fusion
B2: Arch D95N: Archaerhodopsin 3 with aspartic acid 95 mutated to asparagine; non-pumping voltage indicator (protein, UniProt P96787 7-258, looked up, variant D95N)
Archaerhodopsin-3: QAGYDLLGDGRPETLWLGIGTLLMLIGTFYFLVRGWGVTDKDAREYYAVTILVPGIASAAYLSMFFGIGLTEVTVGGEMLDIYYARYANWLFTTPLLLLDLALLAKVDRVTIGTLVGVDALMIVTGLIGALSHTAIARYSWWLFSTICMIVVLYFLATSLRSAAKERGPEVASTFNTLTALVLVLWTAYPILWIIGTEGAGVVGLGIETLLFMVLDVTAKVGFGFILLRSRAILGDTEAPEPSAGADVSAAD

Legend:
HEK 293 cells = assay: Arch fluorescence as a function of membrane potential, whole-cell voltage clamp; assay type: cell-based; conditions: for Approx ΔF/F per 100 mV: Table 2, described herein
Procedure: Fluorescence of Arch in HEK 293 cells supplemented with about 5 μM all-trans retinal (See Methods 4) was readily imaged in an inverted fluorescence microscope with red illumination (λ=640 nm, about 20 mW, and about I=540 W/cm^2), a high numerical aperture objective (NA), a Cy5 filter set, and an EMCCD camera (See Methods 5, FIG. 3A). […] Cells not expressing Arch were not fluorescent.
(4) HEK cell culture. HEK-293 cells were grown at 37° C., 5% CO2, in DMEM supplemented with 10% FBS and penicillin-streptomycin. Plasmids were transfected using Lipofectamine and PLUS reagent (Invitrogen) following the manufacturer's instructions, and assayed between 48-72 hours later. The day before recording, cells were re-plated onto glass-bottom dishes (MatTek) at a density of ˜5000 cells/cm^2.
The concentration of endogenous retinal in the HEK cells was not known, so the cells were supplemented with retinal by diluting stock retinal solutions (40 mM, DMSO) in growth medium to a final concentration of 5 micromolar, and then placing the cells back in the incubator for 1-3 hours. All imaging and electrophysiology were performed in Tyrode buffer (containing, in mM: 125 NaCl, 2 KCl, 3 CaCl2, 1 MgCl2, 10 HEPES, 30 glucose pH 7.3, and adjusted to 305-310 mOsm with sucrose). Only HEK cells having reversal potentials between −10 and −40 mV were included in the analysis.
(5) Microscopy. Simultaneous fluorescence and whole-cell patch clamp recordings were acquired on a home-built, inverted epifluorescence microscope, operated at room temperature. One goal was to collect fluorescence with high efficiency, while also achieving a large enough field of view to image an entire neuron and its processes. Typically, microscope objectives offer a tradeoff between magnification and light-gathering capacity (numerical aperture). Additionally, the ability to change magnification while maintaining a patch on a single cell was important in some cases. Typically the vibrations associated with switching objectives—particularly water or oil immersion objectives—are incompatible with simultaneous patch clamp. In addition, in some cases, the capability to split the field of view into two wavelength bands, and to change magnification without changing the registration of the two halves of the image was important.
(6) Electrophysiology. Filamented glass micropipettes (WPI) were pulled to a tip resistance of 3-10 megohm fire polished, and filled with internal solution (containing, in mM: 125 potassium gluconate, 8 NaCl, 0.6 MgCl2, 0.1 CaCl2, 1 EGTA, 10 HEPES, 4 Mg-ATP, 0.4 Na-GTP, pH 7.3; adjusted to 295 mOsm with sucrose). The micropipettes were positioned with a Burleigh PCS 5000 micromanipulator. Whole-cell, voltage clamp recordings were acquired using an AxoPatch 200B amplifier (Molecular Devices), filtered at 2 kHz with the internal Bessel filter, and digitized with a National Instruments PCIE-6323 acquisition board at 10 kHz. […]
(7) Ramp and step-response of Arch WT and D95N. To measure fluorescence as a function of membrane potential, a triangle wave was applied, with amplitude from −150 mV to +150 mV and period 12 s, with video recording at 100 ms per frame. A pixel weight matrix was calculated according to Eq. S2 (below) and applied to the movie images to generate a fluorescence number for each frame. These fluorescence values were divided by their minimum value (at V=−150 mV). […] Background subtraction from the raw fluorescence would have yielded considerably larger values of delta-F/F.

[1] = Relative photostability of Arch and eGFP (photobleaching of Arch-eGFP fusion); assay type: physicochemical; conditions: measured in a 1:1 fusion with eGFP
Procedure: (3) Relative photostability of Arch and eGFP. To perform a direct comparison of photostability of Arch and eGFP the photobleaching of the Arch-eGFP fusion was studied. This strategy guaranteed a 1:1 stoichiometry of the two fluorophores, simplifying the analysis. The experiments were performed on permeabilized cells, in the microscope, with video recording as the cells photobleached. A movie of photobleaching of Arch was first recorded under 640 nm illumination; then on the same field of view photobleaching of eGFP under 488 nm illumination was recorded, with illumination intensity adjusted to yield approximately the same initial count rate as for Arch. Fluorescence background levels were obtained from nearby protein-free regions of each movie and were subtracted from the intensity of the protein-containing regions. The area under each photobleaching timetrace was calculated, yielding an estimate of the total number of detected photons from each fluorophore. The eGFP emission (lambda-max=509 nm) and the Arch emission (lambda-max=687 nm) were collected through different emission filters, so the raw counts were corrected for the transmission spectra of the filters and the wavelength-dependent quantum yield of the EMCCD camera. The result was that the relative number of photons emitted prior to photobleaching for eGFP:Arch WT was 3.9:1, and for eGFP:ArchD95N this ratio was 10:1.

Molecule | Approx ΔF/F per 100 mV (HEK 293 cells) [%] | photobleaching (HEK 293 cells; continuous 10-minute exposure, 640 nm, about 540 W/cm^2, HEK 293 cells) | Photostability relative to eGFP [1] | greater sensitivity than wild-type (HEK 293 cells) [%] | increase in fluorescence between −150 mV and +150 mV (HEK 293 cells; whole-cell voltage clamp, no background subtraction)
B1 | 66 | about 17% | 0.25 | – | –
B2 | 100 | – | 0.1 | 50 | about 3 fold
